Data as given in the supplement of paper PMC9170038.

System: MS2 coat protein
Test: apparent KD of MS2 coat protein; designed switch direction (-1 OFF switch, 1 ON switch): -1; higher = weaker reporter binding
Method in brief: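 Three titration conditions were used: no input, 200 uM small-molecule ligand, and an oligonucleotide input. In each, SNAP-549-labelled MS2 coat protein was raised from 0.7 or 1.5 nM, doubling, to 3 µM over designed RNA switches transcribed on Illumina chips by stalled E. coli RNA polymerase. Curve fits of normalised cluster fluorescence gave values whose per-design median over clusters is the apparent KD.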

[1] = Eterna round: R95, input ligand: FMN 200 uM
[2] = Eterna round: R95, input ligand: microRNA oligo, concentration not stated
[3] = Eterna round: R95, input ligand: none
[4] = input ligand: microRNA oligo, concentration not stated

| Sequence | apparent KD of MS2 coat protein [1] [nM] | apparent KD of MS2 coat protein [2] [nM] | apparent KD of MS2 coat protein [3] [nM] | apparent KD of MS2 coat protein (input ligand: FMN 200 uM) [nM] | apparent KD of MS2 coat protein (input ligand: none) [nM] | apparent KD of MS2 coat protein [4] [nM] |
| --- | --- | --- | --- | --- | --- | --- |
| UUAUUACAAGCAAGAUCCUACAUGAGGAUCACCCAUGUGCUCGUCUUAUAAGGUACAGUGACGAAAGUCACAGUACC [Sensor 3, v1 - 00] (puzzle: Sensor v3, turn-off variant 1) | 204 | 138 | 221 |  |  |  |
| AAAUAACAAGCAAGAUCCUACAUGAGGAUCACCCAUGUGCUCGUCUUAUAAAGUACUAUCACGAAAGUGAUAGUACA [Sensor 3, v1 - 11] (puzzle: Sensor v3, turn-off variant 1) | 675 | 392 | 546 |  |  |  |
| CAAAUCUGAGGAUAUCGAUAUUUGUACAUGAGGAUCACCCAUGUCCUAUUUAUUAUAUUUCGAGAAGGCAGUGUAU [JR_E5_Sub094] (puzzle: Exclusion 5) |  | 19.2 |  |  |  |  |
| GGGCUCGGUGUGAGGAUAUGCUCGGGUAAACUCGGGCAGAAGGCACAUGAGGAUCACCCAUGUAAGUCGGGCUC [-28.5, -27.4 kcal, A 23%, 4bis-4] (Eterna round: R97, puzzle: Brourd's mod of Exclusion 4) |  |  |  | 18.6 | 18 |  |
| UAUUACCCAAGCAGGUCCCACAUGAGGAUCACCCAUGUGCUCGUCUUAUAACGAUCUGUGGGAAAACCUACGGAUCG [Elimod 20 - Jieux - Sensor, turn-off variant 1] (Eterna round: R97, puzzle: Sensor, turn-off variant 1) |  |  |  | 27.7 | 34.4 |  |
| GCUUGUAGAGGAUAUACAAGGGCCCACGCGGCGAGAGCCGCACAUGAGGAUCACCCAUGUAGAAGGCUACUAUA [JL-ex2-4.23 ViennaUCT mod] (Eterna round: R97, puzzle: Exclusion 2) |  |  |  | 125 | 363 |  |
| GAAAAGGUAGGAUAUACGGAAAAAAAGGGUAGAAAAAAAACACAUGAGGAUCACCCAUGUAGAAGGACCAAAAG [salish99_ex2_r3_030] (puzzle: Exclusion 2) | 60.9 | 32.5 | 27.4 |  |  |  |
| CCCACAAGCUUUUUGCUCGACAUGAGGAUCACCCAUGUAAAAUGGGUAAAUUUAAAUUGAAACAAUUUAAAUUUGGG [-20.1, -44.2 kcal, A 35%] (Eterna round: R97, puzzle: Sensor, turn-off variant 1) |  |  |  | 262 | 222 |  |
| AGGUAACAUGAGGAUCACCCAUGUCAGGAUAUCAGUAAGAUUAGAAUAGAGUAGAGUAUGAGAAGGGACUAUAU [Excluse me! 20 - Jieux - Exclusion 1] (puzzle: Exclusion 1) | 33.3 | 37.3 | 50 |  |  |  |
| AGUCGUAGACAGGAUAUGCGGCUAAUAAAUAAAGCAGAAGGGUCUACUUGAGGAUCACCCAAGUGGGCGGUCUG [jl-ex6-4.22 ViennaUCT mod] (Eterna round: R97, puzzle: Exclusion 6) |  |  |  | 64.9 | 16.9 |  |
| AUCCCGCGAGGAUAUACAUGAGGAUCACCCAUGUAGGUUCUGGAUGGGCGAAAUUUGUGUAGAAGGCGCACCAA [Tibeaqu] (Eterna round: R96, puzzle: Exclusion 3) |  |  |  | 38.4 | 52 | 42.6 |
| CAUGAUCUUCGGAAAAUGUACAUGAGGAUCACCCAUGUGACGAGUUACAUGAAAAACAAGCUUUUUGCUCGUCUUAU [Sensor v3 - Turn-off variant 1 - 10] (puzzle: Sensor v3, turn-off variant 1) | 411 | 288 | 623 |  |  |  |
| AUCAUGUAAGGAUAUCUUACAUGGAUCGAAAGAUCAAGUUAAGAGAAGGUACAUGAGGAUCACCCAUGUAUAAC [Ex4-3: 34] (puzzle: Exclusion 4) | 21 | 22.3 | 20.8 |  |  |  |
| UUUAUGUCAGGAUAUGAGGAGUAGAACAAUAGUACUACUCCUCAGAAGGGACAUGAGGAUCACCCAUGUUCCUC [Fiskers Ex 4 Super stable 44 mod 25] (puzzle: Exclusion 4) |  | 18.5 |  |  |  |  |
| GGUUGGCGAGGAUAUACAUGAGGAUCACCCAUGUGAGAAGAAAAAGUGAGGAAGAAAAGUAGAAGGCGCUGACG [Mat - Exclusion 3 - Mod of Salish D1] (puzzle: Exclusion 3) | 74 | 103 | 81.5 |  |  |  |
| GUUGUUUAUGUAGGAUAUGCCUGGCGUGCCUAAGCAGAAGGACAUGAGGAUCACCCAUGUAUUGCGGUCUGCGUUCAGAUCGCU [salish99_ExNG1_r4_019] (Eterna round: R96, puzzle: Exclusion NG 1) |  |  |  | 36.8 | 23.8 | 17.2 |

| Sequence | apparent KD of MS2 coat protein [1] [nM] | apparent KD of MS2 coat protein [2] [nM] | apparent KD of MS2 coat protein [3] [nM] | apparent KD of MS2 coat protein (input ligand: FMN 200 uM) [nM] | apparent KD of MS2 coat protein (input ligand: none) [nM] | apparent KD of MS2 coat protein [4] [nM] |
| --- | --- | --- | --- | --- | --- | --- |
| CCAUAUAACUGAGGAUAUAAUCACCACUAACAUUUAGAAGGCAGACAUGAGGAUCACCCAUGUGAUUUCUCAAUAUUAUACAUC [Prohibition 77 - Jieux - Exclusion NG 1] (Eterna round: R96, puzzle: Exclusion NG 1) |  |  |  | 387 | 1140 | 544 |
| AGAUCUUCCGUAAGGAUAUGUGUGAAACAGACGGCACAGAAGGUACAUGAGGAUCACCCAUGUUACGCCGCGUA [Eternabot (L1) Solution 85] (Eterna round: R97, puzzle: Brourd's mod of Exclusion 4) |  |  |  | 62.3 | 19.1 |  |
| UCCUUACAUGAGGAUCACCCAUGUGAGGAUAUGAGGGUUGAUUUAAAUGGGUUGAUUUUCAGAAGGCACAUGAA [JR_Ex1_Sub062] (Eterna round: R97, puzzle: Exclusion 1) |  |  |  | 46.2 | 50.9 |  |
| UAACUAACUCCUCGGAGCAACAUGAGGAUCACCCAUGUUAUGAACAUUCGGUGUAACAGGAUGUUUGCUCGUCUGGA [Eternabot (Original) Solution 22] (Eterna round: R97, puzzle: Sensor, turn-off variant 1) |  |  |  | 266 | 259 |  |
| AUUCCCACCCGAGGAUAUGCUUUAUUGCCGGGUGGUCAACAUGAGGAUCACCCAUGUAACUAAACGCAGAAGGCGGACAAUAAG [Ediner] (Eterna round: R96, puzzle: Exclusion NG 2) |  |  |  | 33.5 | 33.8 | 116 |
| AGUACUUACUCGAUAGUGUUAGUACAAUAAGCUUGUGAAACAUGAGGAUCACCCAUGUCCUCAUAAGCUCGUCUUAU [salish99_TOv2_r3_1005] (puzzle: Sensor v3, turn-off variant 2) | 17.6 | 627 | 15.8 |  |  |  |
| UGAAAGGUAGGAUAUACGAAGAAAAAGGGUAGAAUAAUAACACAUGAGGAUCACCCAUGUAGAAGGACCAAAGG [Mat - Exclusion 2 - Mod of my Tesla design - D9] (puzzle: Exclusion 2) | 70.1 | 23.2 | 25.2 |  |  |  |
| AUGUGCACGCUGCGAUCCUACAUGAGGAUCACCCAUGUGGUCUGGUGGCGUGGGUCACCGGACUUGGCUCGUCUUGG [salish99_S_TOV1_R5_075] (Eterna round: R97, puzzle: Sensor, turn-off variant 1) |  |  |  | 139 | 170 |  |
| CCGGAAGUACAGGAUAUCGUAUCGGAAACGAUACGAGAAGGGUAUACAUGAGGAUCACCCAUGUGUCCUACCGG [Fiskers Ex 6 - 27] (puzzle: Exclusion 6) |  | 23.3 |  |  |  |  |
| GUUUCGAGACGGAGAUCCGACAUGAGGAUCACCCAUGUCUCGCAAGCUUUUUGCUCGUCUUAUACUCCUCUGUUCUC [Elimod 46 - Jieux - Sensor, turn-off variant 1] (Eterna round: R97, puzzle: Sensor, turn-off variant 1) |  |  |  | 20.9 | 21.9 |  |
| UUAAUUAAUUGACUGCAAGAUCAACAUGAGGAUCACCCAUGUGAGGAUAUCAGCUCGUUUAGAGCUGAGAAGGCACAAGCAGUC [ExNG3/16-A2] (Eterna round: R96, puzzle: Exclusion NG 3) |  |  |  | 53.6 | 17.6 | 16.7 |
| ACAAGCUUUUUGCUCGGGUACAUGAGGAUCACCCAUGUUUGGGUUUAUUGAGGUUGUGUGGGCGUGCGCUGCAGGUU [JR_SV3TOV1_Sub075] (puzzle: Sensor v3, turn-off variant 1) | 87.7 | 243 | 118 |  |  |  |
| AUUGUUUGAUACCUCUAAUACAUGAGGAUCACCCAUGUUAUCGAGGAUAUGCAGAAGAGAGGAGAGCAGAAGGCGAAGUAAGAG [JR_ExcNG3_Sub027] (Eterna round: R96, puzzle: Exclusion NG 3) |  |  |  | 21.5 | 19.6 | 15.9 |
| UUUAAUUUUUUUUUUUUACAAGCUUUUUGCUCGUCUUAUACAUGAGGAUCACCCAUGUGGGUGGAAAGUAAAUUAUC [JMF 47] (puzzle: Sensor v3, turn-off variant 2) | 38.9 | 96.3 | 56.2 |  |  |  |
| ACAUGAGGAUCACCCAUGUCCGUCUGGUCUGUCUCGGCUGUCGAGGAUAUAGCUCGGUAUCCGCGCUAGAAGGCGGGAGCCGGU [Aenatbe mod 92] (Eterna round: R96, puzzle: Exclusion NG 3) |  |  |  | 30.9 | 35 | 31.8 |
| AAUUAACUAGGAUAUACUUGAGGAUCACCCAAGUGGGCUCCACCUGCUUGGCUCCCAGGUAGAAGGAGUAUACA [Tioner] (Eterna round: R97, puzzle: Exclusion 3) |  |  |  | 213 | 538 |  |
